According to paper PMC9482650, “Quantitative fragmentomics allow affinity mapping of interactomes” (Nature Communications, 2022):
Each block holds one binder with its values, some of them ahead of it.

Assays:
Assay in all cases: holdup assay
Parameters in all cases: key: below the threshold = too weak to quantify, mostly under pKd 3.1 to 4
SNX27, Q96L92 = target: SNX27, Q96L92
NHERF4_1, Q86UT5-2 = target: NHERF4_1, Q86UT5-2
LIMK2, P53671 = target: LIMK2, P53671
MPP6, Q9NZW5 = target: T1, MPP6, Q9NZW5
T1 sequence (Q9NZW5 125-219, limits assumed, looked up): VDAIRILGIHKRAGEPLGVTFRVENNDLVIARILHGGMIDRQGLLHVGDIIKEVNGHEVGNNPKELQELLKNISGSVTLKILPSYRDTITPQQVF

RAPGEF6, Q8TEU7 = target: T2, RAPGEF6, Q8TEU7
T2 sequence (Q8TEU7 525-625, limits assumed, looked up): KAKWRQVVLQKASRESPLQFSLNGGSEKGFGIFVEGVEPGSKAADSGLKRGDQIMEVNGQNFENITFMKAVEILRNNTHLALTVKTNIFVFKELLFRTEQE

DLG1_1, Q12959 = target: DLG1_1, Q12959
SNTB1, Q13884 = target: T3, SNTB1, Q13884
T3 sequence (Q13884 107-205, limits assumed, looked up): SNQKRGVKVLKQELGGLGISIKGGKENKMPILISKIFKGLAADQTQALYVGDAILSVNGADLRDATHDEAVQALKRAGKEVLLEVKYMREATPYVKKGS

APBA2_2, Q99767 = target: T4, APBA2_2, Q99767
T4 sequence (Q99767 654-744, limits assumed, looked up): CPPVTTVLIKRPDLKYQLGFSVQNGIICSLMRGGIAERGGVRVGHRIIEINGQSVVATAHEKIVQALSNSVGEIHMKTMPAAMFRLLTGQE

GRIP2_6, Q9C0E4 = target: GRIP2_6, Q9C0E4
PDZD2_2, O15018 = target: T5, PDZD2_2, O15018
T5 sequence (O15018 329-429, limits assumed, looked up): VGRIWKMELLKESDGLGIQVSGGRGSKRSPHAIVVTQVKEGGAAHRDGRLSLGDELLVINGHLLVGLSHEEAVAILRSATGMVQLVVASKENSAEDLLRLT

GRIP2_3, Q9C0E4 = target: GRIP2_3, Q9C0E4
TJP2_1, Q9UDY2 = target: TJP2_1, Q9UDY2
IL16_4, Q14005 = target: IL16_4, Q14005
DFNB31_2, Q9P202 = target: T6, DFNB31_2, Q9P202
T6 sequence (Q9P202 274-371, limits assumed, looked up): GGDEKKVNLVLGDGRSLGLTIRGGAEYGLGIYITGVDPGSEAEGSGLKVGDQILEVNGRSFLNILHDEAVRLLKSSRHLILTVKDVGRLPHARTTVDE

APBA2_1, Q99767 = target: T7, APBA2_1, Q99767
T7 sequence (Q99767 563-664, limits assumed, looked up): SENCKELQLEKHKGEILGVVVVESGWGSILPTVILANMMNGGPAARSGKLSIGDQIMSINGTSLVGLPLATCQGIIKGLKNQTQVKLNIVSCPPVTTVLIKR

DVL3, Q92997 = target: T8, DVL3, Q92997
T8 sequence (Q92997 244-331, limits assumed, looked up): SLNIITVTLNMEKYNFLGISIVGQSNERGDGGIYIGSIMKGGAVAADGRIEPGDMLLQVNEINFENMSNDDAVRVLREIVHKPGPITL

SCRIB_2, Q14160 = target: SCRIB_2, Q14160
LNX2_3, Q8N448 = target: T9, LNX2_3, Q8N448
T9 sequence (Q8N448 463-564, limits assumed, looked up): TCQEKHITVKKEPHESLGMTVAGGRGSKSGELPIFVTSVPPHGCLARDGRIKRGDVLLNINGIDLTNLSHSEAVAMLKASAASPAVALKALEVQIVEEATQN

MPDZ_10, O75970 = target: T10, MPDZ_10, O75970
T10 sequence (O75970 1624-1722, limits assumed, looked up): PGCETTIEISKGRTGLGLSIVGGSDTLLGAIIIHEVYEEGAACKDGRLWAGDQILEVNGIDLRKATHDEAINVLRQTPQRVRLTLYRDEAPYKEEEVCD

TJP1_2, Q07157 = target: TJP1_2, Q07157
DLG5_1, Q8TDM6 = target: DLG5_1, Q8TDM6
IL16_3, Q14005 = target: IL16_3, Q14005
ARHGEF11, O15085 = target: T11, ARHGEF11, O15085
T11 sequence (O15085 42-136, limits assumed, looked up): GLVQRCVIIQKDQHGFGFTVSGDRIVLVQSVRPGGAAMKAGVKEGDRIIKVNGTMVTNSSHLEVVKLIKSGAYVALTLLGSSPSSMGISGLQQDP

HTRA1, Q92743 = target: HTRA1, Q92743
GRASP, Q7Z6J2 = target: GRASP, Q7Z6J2
SCRIB_3, Q14160 = target: SCRIB_3, Q14160
[1] = plain residues with an end cap or a label only (N-terminal biotin on a linker: ahx)
[2] = plain residues with an end cap or a label only (N-terminal biotin on a linker: ado-ado)
[3] = plain residues with an end cap or a label only (N-terminal biotin on a linker: ttds)

Chain of NHERF4_1, Q86UT5-2 (Q86UT5 other isoform, or with tags, fused parts or gaps): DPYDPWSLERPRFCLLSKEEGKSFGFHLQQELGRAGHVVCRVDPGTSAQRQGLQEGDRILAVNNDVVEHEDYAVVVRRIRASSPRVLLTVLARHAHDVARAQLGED
Chain of IL16_3, Q14005 (Q14005 1107-1207): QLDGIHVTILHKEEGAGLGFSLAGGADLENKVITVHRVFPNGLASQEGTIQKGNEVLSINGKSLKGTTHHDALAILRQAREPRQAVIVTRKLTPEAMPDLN
Chain of TJP2_1, Q9UDY2 (Q9UDY2 24-128): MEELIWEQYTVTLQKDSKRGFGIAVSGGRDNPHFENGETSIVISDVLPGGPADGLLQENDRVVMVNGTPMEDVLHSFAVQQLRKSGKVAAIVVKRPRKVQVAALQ
Chain of SCRIB_2, Q14160 (Q14160 857-960): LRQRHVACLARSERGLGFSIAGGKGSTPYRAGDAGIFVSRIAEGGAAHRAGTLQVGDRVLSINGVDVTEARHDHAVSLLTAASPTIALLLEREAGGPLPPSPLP
Chain of IL16_4, Q14005 (Q14005 1229-1329): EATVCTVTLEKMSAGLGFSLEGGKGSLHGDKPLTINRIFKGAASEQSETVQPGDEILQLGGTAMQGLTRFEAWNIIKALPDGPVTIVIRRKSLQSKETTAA
Chain of GRASP, Q7Z6J2 (Q7Z6J2 96-193): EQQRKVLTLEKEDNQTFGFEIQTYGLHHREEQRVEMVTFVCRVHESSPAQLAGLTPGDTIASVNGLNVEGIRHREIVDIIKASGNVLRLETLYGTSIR
Chain of GRIP2_6, Q9C0E4 (Q9C0E4 648-740): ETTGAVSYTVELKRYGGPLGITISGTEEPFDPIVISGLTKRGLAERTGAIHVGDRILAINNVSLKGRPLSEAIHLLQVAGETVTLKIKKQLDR
Chain of DLG5_1, Q8TDM6 (Q8TDM6 617-713): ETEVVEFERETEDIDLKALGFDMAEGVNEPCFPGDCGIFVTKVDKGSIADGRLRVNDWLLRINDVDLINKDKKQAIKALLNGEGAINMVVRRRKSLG
Chain of TJP1_2, Q07157 (Q07157 181-274): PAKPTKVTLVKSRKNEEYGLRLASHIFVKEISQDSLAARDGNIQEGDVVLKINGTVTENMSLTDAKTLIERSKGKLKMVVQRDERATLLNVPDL
Chain of GRIP2_3, Q9C0E4 (Q9C0E4 238-339): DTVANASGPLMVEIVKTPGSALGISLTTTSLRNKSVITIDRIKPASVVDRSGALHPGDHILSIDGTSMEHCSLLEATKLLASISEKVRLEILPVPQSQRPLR
Chain of LIMK2, P53671 (P53671 143-248): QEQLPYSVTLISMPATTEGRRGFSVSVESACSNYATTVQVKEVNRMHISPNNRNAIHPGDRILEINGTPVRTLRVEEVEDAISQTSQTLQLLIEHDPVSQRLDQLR
Chain of SCRIB_3, Q14160 (Q14160 999-1103): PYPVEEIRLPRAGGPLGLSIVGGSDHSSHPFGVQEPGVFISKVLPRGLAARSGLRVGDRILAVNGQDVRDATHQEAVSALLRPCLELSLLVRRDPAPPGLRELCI
Chain of HTRA1, Q92743 (Q92743 360-477): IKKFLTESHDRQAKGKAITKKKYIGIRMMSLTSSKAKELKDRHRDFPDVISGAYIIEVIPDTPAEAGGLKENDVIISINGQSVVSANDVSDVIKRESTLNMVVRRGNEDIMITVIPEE

Binder: RNCSTNDSLL [ADRB2, P07550]
pKd (SNX27, Q96L92; [1]): 3.6 | pKd (NHERF4_1, Q86UT5-2; [1]): 3.88 | pKd (LIMK2, P53671; [1]): below the threshold | pKd (MPP6, Q9NZW5; [1]): below the threshold | pKd (RAPGEF6, Q8TEU7; [1]): below the threshold | pKd (DLG1_1, Q12959; [1]): below the threshold | pKd (SNTB1, Q13884; [1]): below the threshold | pKd (APBA2_2, Q99767; [1]): below the threshold | pKd (GRIP2_6, Q9C0E4; [1]): below the threshold | pKd (PDZD2_2, O15018; [1]): below the threshold | pKd (GRIP2_3, Q9C0E4; [1]): below the threshold | pKd (TJP2_1, Q9UDY2; [1]): below the threshold | pKd (IL16_4, Q14005; [1]): below the threshold | pKd (DFNB31_2, Q9P202; [1]): below the threshold | pKd (APBA2_1, Q99767; [1]): below the threshold | pKd (DVL3, Q92997; [1]): below the threshold | pKd (SCRIB_2, Q14160; [1]): below the threshold | pKd (LNX2_3, Q8N448; [1]): below the threshold | pKd (MPDZ_10, O75970; [1]): 3.69 | pKd (TJP1_2, Q07157; [1]): below the threshold | pKd (DLG5_1, Q8TDM6; [1]): below the threshold | pKd (IL16_3, Q14005; [1]): below the threshold | pKd (ARHGEF11, O15085; [1]): below the threshold | pKd (HTRA1, Q92743; [1]): 3.62 | pKd (GRASP, Q7Z6J2; [1]): below the threshold | pKd (SCRIB_3, Q14160; [1]): below the threshold

Binder: DPLTPSRSQL [DGKK, Q5KSL6]
pKd (SNX27, Q96L92; [3]): below the threshold | pKd (NHERF4_1, Q86UT5-2; [3]): 3.81 | pKd (LIMK2, P53671; [3]): below the threshold | pKd (MPP6, Q9NZW5; [3]): below the threshold | pKd (RAPGEF6, Q8TEU7; [3]): below the threshold | pKd (DLG1_1, Q12959; [3]): 4.01 | pKd (SNTB1, Q13884; [3]): below the threshold | pKd (APBA2_2, Q99767; [3]): below the threshold | pKd (GRIP2_6, Q9C0E4; [3]): below the threshold | pKd (PDZD2_2, O15018; [3]): below the threshold | pKd (GRIP2_3, Q9C0E4; [3]): below the threshold | pKd (TJP2_1, Q9UDY2; [3]): below the threshold | pKd (IL16_4, Q14005; [3]): below the threshold | pKd (DFNB31_2, Q9P202; [3]): below the threshold | pKd (APBA2_1, Q99767; [3]): below the threshold | pKd (DVL3, Q92997; [3]): below the threshold | pKd (SCRIB_2, Q14160; [3]): below the threshold | pKd (LNX2_3, Q8N448; [3]): below the threshold | pKd (MPDZ_10, O75970; [3]): below the threshold | pKd (TJP1_2, Q07157; [3]): below the threshold | pKd (DLG5_1, Q8TDM6; [3]): below the threshold | pKd (IL16_3, Q14005; [3]): below the threshold | pKd (ARHGEF11, O15085; [3]): below the threshold | pKd (HTRA1, Q92743; [3]): below the threshold | pKd (GRASP, Q7Z6J2; [3]): 4.17 | pKd (SCRIB_3, Q14160; [3]): 3.5

Binder: HSGSYLVTSV [APC, P25054]
pKd (SNX27, Q96L92; [1]): 5.52 | pKd (NHERF4_1, Q86UT5-2; [1]): below the threshold | pKd (LIMK2, P53671; [1]): below the threshold | pKd (MPP6, Q9NZW5; [1]): below the threshold | pKd (RAPGEF6, Q8TEU7; [1]): below the threshold | pKd (DLG1_1, Q12959; [1]): 4.6 | pKd (SNTB1, Q13884; [1]): 4.05 | pKd (APBA2_2, Q99767; [1]): below the threshold | pKd (GRIP2_6, Q9C0E4; [1]): below the threshold | pKd (PDZD2_2, O15018; [1]): 4.43 | pKd (GRIP2_3, Q9C0E4; [1]): below the threshold | pKd (TJP2_1, Q9UDY2; [1]): below the threshold | pKd (IL16_4, Q14005; [1]): below the threshold | pKd (DFNB31_2, Q9P202; [1]): below the threshold | pKd (APBA2_1, Q99767; [1]): below the threshold | pKd (DVL3, Q92997; [1]): below the threshold | pKd (SCRIB_2, Q14160; [1]): 4.33 | pKd (LNX2_3, Q8N448; [1]): below the threshold | pKd (MPDZ_10, O75970; [1]): 4.06 | pKd (TJP1_2, Q07157; [1]): below the threshold | pKd (DLG5_1, Q8TDM6; [1]): below the threshold | pKd (IL16_3, Q14005; [1]): below the threshold | pKd (ARHGEF11, O15085; [1]): 4.59 | pKd (HTRA1, Q92743; [1]): 4.2 | pKd (GRASP, Q7Z6J2; [1]): 5.06 | pKd (SCRIB_3, Q14160; [1]): 4.45

Now from value to binder:

pKd (SNX27, Q96L92; [1]): 4.16 | pKd (NHERF4_1, Q86UT5-2; [1]): below the threshold | pKd (LIMK2, P53671; [1]): below the threshold | pKd (MPP6, Q9NZW5; [1]): below the threshold | pKd (RAPGEF6, Q8TEU7; [1]): below the threshold | pKd (DLG1_1, Q12959; [1]): below the threshold | pKd (SNTB1, Q13884; [1]): below the threshold | pKd (APBA2_2, Q99767; [1]): below the threshold | pKd (GRIP2_6, Q9C0E4; [1]): below the threshold | pKd (PDZD2_2, O15018; [1]): below the threshold | pKd (GRIP2_3, Q9C0E4; [1]): below the threshold | pKd (TJP2_1, Q9UDY2; [1]): below the threshold | pKd (IL16_4, Q14005; [1]): below the threshold | pKd (DFNB31_2, Q9P202; [1]): below the threshold | pKd (APBA2_1, Q99767; [1]): below the threshold | pKd (DVL3, Q92997; [1]): below the threshold | pKd (SCRIB_2, Q14160; [1]): below the threshold | pKd (LNX2_3, Q8N448; [1]): below the threshold | pKd (MPDZ_10, O75970; [1]): below the threshold | pKd (TJP1_2, Q07157; [1]): below the threshold | pKd (DLG5_1, Q8TDM6; [1]): below the threshold | pKd (IL16_3, Q14005; [1]): below the threshold | pKd (ARHGEF11, O15085; [1]): below the threshold | pKd (HTRA1, Q92743; [1]): below the threshold | pKd (GRASP, Q7Z6J2; [1]): below the threshold | pKd (SCRIB_3, Q14160; [1]): below the threshold
Binder: SSSNSEDTEM [NHERF3, Q5T2W1]

pKd (SNX27, Q96L92; [2]): below the threshold | pKd (NHERF4_1, Q86UT5-2; [2]): below the threshold | pKd (LIMK2, P53671; [2]): below the threshold | pKd (MPP6, Q9NZW5; [2]): 4.43 | pKd (RAPGEF6, Q8TEU7; [2]): below the threshold | pKd (DLG1_1, Q12959; [2]): below the threshold | pKd (SNTB1, Q13884; [2]): below the threshold | pKd (APBA2_2, Q99767; [2]): below the threshold | pKd (GRIP2_6, Q9C0E4; [2]): 4.02 | pKd (PDZD2_2, O15018; [2]): 4.5 | pKd (GRIP2_3, Q9C0E4; [2]): below the threshold | pKd (TJP2_1, Q9UDY2; [2]): below the threshold | pKd (IL16_4, Q14005; [2]): below the threshold | pKd (DFNB31_2, Q9P202; [2]): below the threshold | pKd (APBA2_1, Q99767; [2]): below the threshold | pKd (DVL3, Q92997; [2]): 3.85 | pKd (SCRIB_2, Q14160; [2]): below the threshold | pKd (LNX2_3, Q8N448; [2]): below the threshold | pKd (MPDZ_10, O75970; [2]): below the threshold | pKd (TJP1_2, Q07157; [2]): below the threshold | pKd (DLG5_1, Q8TDM6; [2]): below the threshold | pKd (IL16_3, Q14005; [2]): below the threshold | pKd (ARHGEF11, O15085; [2]): 3.95 | pKd (HTRA1, Q92743; [2]): 5.32 | pKd (GRASP, Q7Z6J2; [2]): below the threshold | pKd (SCRIB_3, Q14160; [2]): below the threshold
Binder: QKNKDKEYYV [NRXN3_rs746444206, Q9Y4C0]
